Test results published in patent publication US10918730B2, “Pegylated bioactive peptides and uses thereof” (GRIFFON PHARMACEUTICALS INC., priority 2016, dated 2021).
Non-standard residues stand in square brackets, D forms with d. No end group written: not given here. hArg = N=C(N)NCCCC[C@H](N)C(=O)O; Orn = NCCC[C@H](N)C(=O)O

How the values were obtained:
[1] = target: T1, human GHRH receptor (Homo sapiens, UniProt Q02643); assay: Hit Hunter (DiscoveRx) cAMP agonist assay in cells expressing GHRH receptor; format: cell-based; conditions: for in vitro biological activity in words: longer PEG chains at the 9th position; for potency in words: Table 2 experiment, compared to native peptide
T1 sequence (Q02643 23-423): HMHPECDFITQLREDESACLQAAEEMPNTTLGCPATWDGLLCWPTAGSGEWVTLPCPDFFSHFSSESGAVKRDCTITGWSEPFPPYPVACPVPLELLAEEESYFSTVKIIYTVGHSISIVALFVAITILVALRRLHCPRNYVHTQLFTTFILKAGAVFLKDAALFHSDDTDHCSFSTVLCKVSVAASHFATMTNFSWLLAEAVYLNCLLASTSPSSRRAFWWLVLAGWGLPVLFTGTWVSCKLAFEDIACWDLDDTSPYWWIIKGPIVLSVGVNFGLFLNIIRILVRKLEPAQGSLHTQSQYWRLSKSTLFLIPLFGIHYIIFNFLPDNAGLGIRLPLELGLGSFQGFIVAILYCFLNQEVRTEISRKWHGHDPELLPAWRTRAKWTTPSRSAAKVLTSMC
Experimental: For agonist determination, cells were incubated with sample to induce response. Media was aspirated from cells and replaced with 15 μL 2:1 HBSS/10 mM Hepes:cAMP XS+ Ab reagent. […] Vehicle concentration was 1%. […] Microplates were read following signal generation with a PerkinElmer Envision™ instrument for chemiluminescent signal detection. Compound activity was analyzed using CBIS data analysis suite (ChemInnovation, CA).

[2] = tested on: Growth Hormone secretion; assay: GH release kinetics after subcutaneous injection in Sprague-Dawley rats; format: in vivo; conditions: female rats, single subcutaneous dose 0.04 mg/kg, FIG. 1; for GH AUC (0-90 min): plasma GH by ELISA
Excerpt: Protocol: Sprague-Dawley rats (female, weighing from 250 to 300 g) were obtained from Charles River Inc. Animals were used according to a protocol of the Animal Care Committee along with the principles of the Guide for the Care and Use of Experimental Animals of the Canadian Council on Animal Care. The animals were maintained on standard laboratory chow under a 12:12 light:dark cycle. They were kept in groups of 4 rats per cage. The animals were anesthetized with isoflurane 2.5%. A mid-section opening was made in the neck to expose the carotid artery. The carotid artery was canulated with polypropylene tubing (PE-50) to allow blood withdrawal. After surgical preparation, rats received a subcutaneous injection of GHRH analog (10-100 μg/kg) dissolved in 20 mM AcONa+5% mannitol at pH 5). Blood samples (400 μL/time point) were collected from 2-4 animals per group. […] Blood was collected into microtainer tubes containing K3EDTA, mixed and immediately centrifuged at 13,000 RPM in a desktop centrifuge for 2 minutes. The plasma was collected and placed into a screw cap Eppendorf™ tube and quickly frozen in liquid nitrogen. The samples were then kept at −80° C. until assayed. Determination of GH levels was performed as described below.
Determination of GH levels in plasma samples: Rat and mouse plasma samples were vortexed carefully and centrifuged at 9,000 RPM for 2 min at 4° C. […] The remainder of the procedure was performed according to the manufacturers instructions, and the data obtained were analyzed using GraphPad Prism™ software. […] Growth hormone levels were determined in timed-aliquots of blood and are depicted in FIG. 1. […]
The N-terminal part of the GHRH peptide is known to be buried in the extracellular loops and transmembrane domains of the GHRH receptor, and thus almost all of the amino acids in the N-terminal domain participate in high affinity binding of the GHRH peptide to the receptor. […] Briefly, peptides (0.04 mg/kg) were subcutaneously injected in female rats and growth hormone levels were determined in timed aliquots of blood drawn from the animals.

CC[C@H](C)[C@H](NC(=O)[C@H](C)NC(=O)[C@H](CC(=O)O)NC(=O)[C@H](C)NC(=O)[C@@H](N)Cc1ccc(O)cc1)C(=O)N[C@@H](Cc1ccccc1)C(=O)N[C@H](C(=O)N[C@@H](CC(N)=O)C(=O)N[C@@H](CO)C(=O)N[C@@H](Cc1ccc(O)cc1)C(=O)N[C@@H](CCCNC(=N)N)C(=O)N[C@@H](CCCCN)C(=O)N[C@H](C(=O)N[C@@H](CC(C)C)C(=O)NCC(=O)N[C@@H](CCC(N)=O)C(=O)N[C@@H](CC(C)C)C(=O)N[C@@H](CO)C(=O)N[C@@H](C)C(=O)N[C@@H](CCCNC(=N)N)C(=O)N[C@@H](CCCCN)C(=O)N[C@@H](CC(C)C)C(=O)N[C@@H](CC(C)C)C(=O)N[C@@H](CCC(N)=O)C(=O)N[C@@H](CC(=O)O)C(=O)N[C@H](C(=O)N[C@@H](CCSC)C(=O)N[C@@H](CO)C(=O)N[C@@H](CCCNC(=N)N)C(N)=O)[C@@H](C)CC)C(C)C)[C@@H](C)O [GHRH1-29, reference compound]
Max. response(%) (compared to baseline) ([1]; Table 3, independent experiment): 112.97%

YaDAIFTAC(Peg-2K)YROVLAQLSAROALQDILS(Har)-NH2 (Y[dA]DAIFTAC(PEG 2 kDa)YR[Orn]VLAQLSAR[Orn]ALQDILS[hArg]-NH2) [Analog 10 (C9), Cys9 conjugated to about 2 kDa PEG, Har29]
fold more potent than the 5K and 40K Pegylated GHRH peptides (analogs 15 and 16) ([1]; Table 3 experiment): 2-6 fold | fold more potent than the native peptide ([1]; Table 3 experiment): ~14 fold

YaDAIFTAC(Peg-2K)YROVLAQLSAROALQDILSKN-NH2 (Y[dA]DAIFTAC(PEG 2 kDa)YR[Orn]VLAQLSAR[Orn]ALQDILSKN-NH2) [Analog 6 (C9), Cys9 conjugated to about 2 kDa PEG]
GH AUC (0-90 min) [2]: 29075 ng/ml/90 min

YaDAIFTAC(Peg-5K)YROVLAQLSAROALQDILS(Har)-NH2 (Y[dA]DAIFTACYR[Orn]VLAQLSAR[Orn]ALQDILS[hArg]-NH2; not fully specified (residue 9); printed as YaDAIFTAC(Peg-5K)YROVLAQLSAROALQDILS(Har)-NH2) [Analog 15 (C9), Cys9 conjugated to 5K PEG, Har29]
in vitro biological activity in words ([1]; Table 3 experiment): without loss of in vitro biological activity

YaDAIFTAC(Peg-40K)YROVLAQLSAROALQDILS(Har)-NH2 (Y[dA]DAIFTAC(PEG 40 kDa)YR[Orn]VLAQLSAR[Orn]ALQDILS[hArg]-NH2) [Analog 16 (C9), Cys9 conjugated to about 40 kDa PEG, Har29]
in vitro biological activity in words ([1]; Table 3 experiment): without loss of in vitro biological activity

YaDAIFTASYROVLAC(Peg-2K)LSAROALQDILSKN-NH2 (Y[dA]DAIFTASYR[Orn]VLAC(PEG 2 kDa)LSAR[Orn]ALQDILSKN-NH2) [Analog 9 (C16), Cys16 conjugated to about 2 kDa PEG]
potency in words [1]: reduced potency

YaDAIFTASYROVLAQLSAROALQDC(Peg-2K)LSKN-NH2 (Y[dA]DAIFTASYR[Orn]VLAQLSAR[Orn]ALQDC(PEG 2 kDa)LSKN-NH2) [Analog 8 (C26), Cys26 conjugated to about 2 kDa PEG]
potency in words [1]: reduced potency

YaDAIFTASYROVLAQLSAROALQDILC(Peg-2K)KN-NH2 (Y[dA]DAIFTASYR[Orn]VLAQLSAR[Orn]ALQDILC(PEG 2 kDa)KN-NH2) [Analog 1 (C28), GHRH analog with Cys28 conjugated to about 2 kDa PEG]
stimulation of GH secretion in words [2]: potently stimulated GH secretion

YaDAIFTASYROVLAQLSC(Peg-2K)ROALQDILSKN-NH2 (Y[dA]DAIFTASYR[Orn]VLAQLSC(PEG 2 kDa)R[Orn]ALQDILSKN-NH2) [Analog 4 (C19), Cys19 conjugated to about 2 kDa PEG]
potency in words [1]: reduced potency

YaDAIFTASYROVLC(Peg-2K)QLSAROALQDILSKN-NH2 (Y[dA]DAIFTASYR[Orn]VLC(PEG 2 kDa)QLSAR[Orn]ALQDILSKN-NH2) [Analog 5 (C15), Cys15 conjugated to about 2 kDa PEG]
potency in words [1]: reduced potency

YaDAIFTC(Peg-2K)SYROVLAQLSAROALQDILSKN-NH2 (Y[dA]DAIFTC(PEG 2 kDa)SYR[Orn]VLAQLSAR[Orn]ALQDILSKN-NH2) [Analog 7 (C8), Cys8 conjugated to about 2 kDa PEG]
GH AUC (0-90 min) [2]: 15657 ng/ml/90 min | potency in words [1]: reduced potency
